Results on one substance are retold here after article doi:10.1101/2023.04.27.538529.

Experiment [1] deals with mouse E372K SH2B3 SH2 domain (residues 324-446) (mouse) (UniProt O09039). Put plainly: SPR. (SPR reads the build-up and loss of mass on a sensor chip optically.)
In experiment [2] the target is mouse WT SH2B3 SH2 domain (residues 324-446) (mouse) (UniProt O09039). Put plainly: SPR.

Broadly, the IC50 is the concentration needed to halve the response being measured. For JAK2 pY813 peptide, the IC50 in experiment [1] stood at 0.685 µM; in experiment [2], 0.127 µM.
